From patent publication US11897966 (UTC THERAPEUTICS SHANGHAI, dated 2024)

Tests used:
[1] = biological target: T1, mesothelin-Fc recombinant protein (human, UniProt Q13421 296-580, limits assumed); experiment: FACS of T cells expressing the scFv CAR, stained with Mesothelin-Fc + PE-anti-IgG-Fc; Mock T cells of the same block: 0.63
T1 construct: also called mesothelin-Fc protein; human Mesothelin-Fc; not shown: Fc part

[2] = biological target: T1, mesothelin-Fc recombinant protein; experiment: FACS of T cells expressing the scFv CAR, stained with Mesothelin-Fc + PE-anti-IgG-Fc; Mock T cells of the same block: 0.97

T1 sequence (Q13421 other isoform, or with tags, fused parts or gaps limits assumed): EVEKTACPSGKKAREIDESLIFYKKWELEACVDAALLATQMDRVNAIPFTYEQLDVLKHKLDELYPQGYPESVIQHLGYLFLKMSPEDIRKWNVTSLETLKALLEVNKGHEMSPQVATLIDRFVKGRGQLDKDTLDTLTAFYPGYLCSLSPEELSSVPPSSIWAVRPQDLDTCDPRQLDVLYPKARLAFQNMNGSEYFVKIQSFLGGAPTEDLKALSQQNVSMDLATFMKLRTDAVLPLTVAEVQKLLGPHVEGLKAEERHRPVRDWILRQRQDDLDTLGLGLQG

| Binder | number in the Mesothelin-Fc positive gate (percent of cells, unit not given) [1] | number in the Mesothelin-Fc positive gate (percent of cells, unit not given) [2] |
| --- | --- | --- |
| anti-mesothelin scFv-M13 (scFv) AIRMTQSPSSLSASVGDRVTITCRASQGISNSLAWYQQKPGKAPKLLLYAASRLESGVPSRFSGSGSGTDYTLTISSLQPEDFATYYCQQYYSTPFTFGPGTKLEIKGGGGSGGGGSGGGGSQVQLVQSGAEVKKPGSSVKVSCKTSADTFSANTINWVRQAPGHGLEWMGRIIPSLNIRDYAQEFQGRVTFTADESTNTVYMQLTSLRSEDTAVYYCARDPGSTWSPNQFFPHWGQGTLVTVSS | 71.1 |  |
| M18 (scFv) chain 1: QVQLVQSGGGLVQPGGSLRLSCAASGFTFSSYWMHWVRQAPGKGLVWVSRINSDGSSTSYADSVKGRFTISRDNAKNTLYLQMNSLRAEDTAVYYCVRTGWVGSYYYYMDVWGKGTTVTVSS chain 2: EIVLTQSPGTLSLSPGERATLSCRASQSVSSNYLAWYQQKPGQPPRLLIYDVSTRATGIPARFSGGGSGTDFTLTISSLEPEDFAVYYCQQRSNWPPWTFGQGTKVEIK | 9.53 |  |
| anti-mesothelin scFv-M31 (scFv) QSALTQPPSASGSPGQSVTISCTGTSSDIGGYNSVSWYQQHPGKAPKLIIYGVSRRPSGVPDRFSGSKSANTASLTVSGLQAVDEADYYCSSYGGSNNLLFGGGTKLTVLGGGGSGGGGSGGGGSEVHLVESGGGLAQPGGSLRLSCAASGFSFSSSWMAWVRQAPGKGLEWVANIKQDGSSQYYVDSVKGRFTISRDNAKNSLSLQMNSLRAEDTAVYYCARDIWYSIDYWGQGTLVTVSS |  | 67.9 |
| anti-mesothelin scFv-M32 (scFv) DIRMTQSPSSLSASVGDRVTVTCQASEDINNSLNWYQQKPGKAPQLLIYDASDLETGVPSRFSGRGSGRDFTLTISSLQPEDFATYYCQQLNSYPLTFGGGTKLEIKGGGGSGGGGSGGGGSQVQLVQSGAEVKKPGASVKVSCKASGFTFIGYYLHWVRQAPGQGLEWMGIINPSGGRTSMAQKFQGRVSMTTDTSTGTVYLDLGRLGSDDTAVYYCARADNWNAGSMDVWGNGTTVTVSS |  | 84.1 |
| anti-mesothelin scFv-M6 (scFv) EIVMTQSPATLSLSPGERATLSCRASQSIGNSLAWYQQKPGQAPRLLIYDVSNRATGIPARFSGSGSGTDFTLTISSLEPEDFAVYYCQHRYSWPLTFGGGTKVEIKGGGGSGGGGSGGGGSQVQLVQSGGGLVKPGGSLRLSCAASGFTFSDYYMSWIRQAPGKGLEWVSYISSSGSTIYYADSVKGRFTISRDNAKNSLYLQMNSLRAEDTAVYYCARDGYRTHNWFDPWGQGTLVTVSS | 83.4 |  |
| anti-mesothelin scFv-M37 (scFv) DIVMTQTPSSLSASVGDRVTITCRASQGISNYLAWFQQKPGKAPKPLIYAASSLQSGVPSKFSGSGSGTDFTLTISNLQPEDFATYICQQYSSYPITFGQGTRLEIKGGGGSGGGGSGGGGSQLQLQESGPGLVKPSETLSLTCAVSGGSISPYYWTWIRQSPGKAMEWMGYIHYSGRTNYNPSLESRATFSVDTSKNQISLKLNSVTAADTAVYYCTKVGDPGLFDYWGPGTLVTVSS |  | 74.2 |

More lines, now with the values ahead:

| number in the Mesothelin-Fc positive gate (percent of cells, unit not given) [1] | number in the Mesothelin-Fc positive gate (percent of cells, unit not given) [2] | Binder |
| --- | --- | --- |
| 36.3 |  | anti-mesothelin scFv-M7 (scFv) DIRLTQSPSSLSASLGDRVTITCRASQAISSALAWYQQKPGKAPRLLIYDASTLESGVPSRFSGSGSGTDFTLTISSLQPEDFATYYCQQADSFPLTFGGGTKLEIKGGGGSGGGGSGGGGSQVQLVQSGAEVKKSGESLKISCKGSGYGFGAYWIAWVRQMPGKGLEWMGIIYPGDSRVIYSPYFQGQVTISADKSISTAYLQWSSLKASDTAMYYCARFGGPKFATNWFDIWGQGTTVTVSS |
|  | 75.6 | anti-mesothelin scFv-M20 (scFv) AIQMTQSPSSLSASVGNRVTITCRASQGISSAVAWYQQKPGKPPKLLISYASSLESGVPSRFSGSGSGTDFSLTISSLQPEDFATYFCQQFNSYPLTFGGGTKVEIKGGGGSGGGGSGGGGSQVQLVQSGAEVRKPGESLKISCKGSGYSFRDSWIAWVRQMPGQGLEWMGIIFPGDSNPIYSPSFQGQVTISADTSISTTFLQWRSLKASDSAIYYCARHAAWGAGWFDPWGQGTLVTVSS |
|  | 82.8 | anti-mesothelin scFv-M28 (scFv) QSALTQPPSASGSPGQSVTISCSGTSSDVGGYNFVSWYQHHPGKAPKLMIYEVSKRPSGVPDRFSGSKSGNTASLTVSGLQAEDEADYYCSSYAGRNNPYLFGTGTKLTVLGGGGSGGGGSGGGGSQLQLQESGAEVKKPGSSVKVSCKASGGTFSSYAISWVRQAPGQGLEWMGGIIPIFGTANYAQKFQGRVTITADESTSTAYMELSSLRSEDTAVYYCARDLGGYSYGHGLDYWGQGTLVTVSS |
|  | 93.6 | anti-mesothelin scFv-M24 (scFv) QPVLTQPPSASGTPGQRVTISCSGSSSNIGSNYVYWYQQFPGTAPKLLIYMNNQRPSGVPDRFSGSKSGTSASLAISGLRSEDEADYYCAARDDSLSGYVTFGGGTKLTVLGGGGSGGGGSGGGGSEVHLVESGGGLVQPGGSLRLSCAASGFTFSSYAMSWVRQAPGKGLEWVSAISGSGGSTYYADSVKGRFTISRDNSKNTLYLQMNSLKTEDTAVYYCTRGVATFDYWGQGTLVTVSS |
| 48.8 |  | anti-mesothelin scFv-M15 (scFv) DIQLTQSPSSLSASIGDRVTITCRASQGVNSALAWYQQKPGKPPNLLIYDASSLESGVPSRFSGSGSGRDFTLTISSLQPEDFATYYCQQFSSYPLTFGGGTKVDIKGGGGSGGGGSGGGGSQVQLVQSGAEVKKPGASVKVSCKASGYTFTSYYMHWVRQAPGQGLEWMGIINPSGGSTSYAQKFQGRVTMTRDTSTSTVYMELSSLRSEDTAVYYCARAQRGGSVYFDYWGQGTLVTVSS |
| 80.8 |  | anti-mesothelin scFv-M8 (scFv) DIQLTQSPSSLSASVGDRVTITCRASQSISSSLNWYQQKPGKAPKLLIYAASSLQSGVPSRFSGSGSGTDFTLTISSLQPEDFATYSCQQSYSTPLTFGGGTKVEIKGGGGSGGGGSGGGGSQVHLVESGGGVVQPGRSLRVSCAASGFTFSGYAMYWVRQAPGKGLEYVSAITTNGGSTNYADSVKGRFTISRDNSKNTLYLQMSSLRAGDTAVYYCARGAPGYRGYYMDVWGKGTTVTVSS |
|  | 80 | anti-mesothelin scFv-M22 (scFv) QSALTQPASVSGSPGQSITLSCTGTRRDIGGYEYVSWYQQHPGKAPKLLIFSVNNRPSGVSHRFSGSKSGNTASLTISGLQAEDEAAYFCSSYSSRDTLVLFGGGTKLTVLGGGGSGGGGSGGGGSQVQLVQSGAEVKKPGSSVKVSCKASGGTFSSYAISWVRQAPGQGLEWMGGIIPIFGTANYAQKFQGRVTITADESTSTAYMELSSLRSEDTAVYYCASGRSGSYGLYWGQGTLVTVSS |
|  | 76.3 | anti-mesothelin scFv-M27 (scFv) EIVLTQSPGTLSLSPGERATLSCRASQPIVASHLAWYQHKPGQAPRLLIYGASTRAAGIPDRFSGSGSGTDFTLTISRLEPEDFAVYFCQQYGISPFTFGPGTKVDIKGGGGSGGGGSGGGGSQVQLVQSGAEVKKPGESLKISCQGSGYSFTDYWIGWVRQAPGQGLEWMGWITPNNGNTNYAPKFQGRVTLTTDTSTSTAYMELRSLTSDDTAVYFCARRGRNSSGYLYYYSMDVWGQGTTVTVSS |
